From patent US20180171411A1, “GFRalpha1 AS A BIOMARKER FOR CISPLATIN-INDUCED CHEMORESISTANCE AND METASTASIS” (THE BOARD OF REGENTS OF THE UNIVERSITY OF TEXAS SYSTEM, priority 2015, published 2018)

Tested on: MG-63 cells
Assay: WST-1 cell viability of MG-63 cells
Assay type: cell-based, human
Details: GDNF 50 ng/ml, 24 h
Method: FIG. 4. GFRα1 regulates autophagy by Src/AMPK signaling in osteosarcoma cells. (a-b) Immunoblot analysis of osteosarcoma cell lysates with antibodies specific for GFRα1, p-Src, Src, p-AMPK, AMPK, p-mTOR, mTOR, p-p70 S6Kinase, Beclin 1, HMGB1, LC3, and β-actin. (a) MG-63 and cells were treated with cisplatin (20 μM) for 24 hr. (b) Control and GFRα1-deficient MG-63 cells were treated with cisplatin (20 μM) for 24 hr. (c-e) Immunoblot analysis of osteosarcoma cell lysates with antibodies specific for GFRα1, p-Src, Src, p-AMPK, AMPK, LC3, and β-actin. (c) Control and Src-deficient MG-63 cells were treated with cisplatin (20 μM) for 24 hr. […] Cell viability was measured using the WST-1 assay. […] Cell viability was measured using the WST-1 assay. […]
FIG. 7. […] (a) Quantitative real-time PCR of GDNF mRNA expression after cisplatin treatment. […] (b-d) Cell viability was measured using the WST-1 assay. […] (f) Quantitative analysis of the number of yellow puncta and the number of RFP-LC3 puncta in the combined images of Control and GFRα1-overexpressing MG-63 cells treated with GDNF. […]
Cell viability assays. […] Cell viability was determined by measuring the absorbance after adding WST-1. The spectrophotometric absorbance of the samples was measured using an Ultra Multifunctional Microplate Reader (Tecan, Durham, N.C.) at 450 nm. […]

B1: GDNF: glial cell line-derived neurotrophic factor, the major ligand of GFRα1 (protein, UniProt P39905 78-211, looked up)
Glial cell line-derived …: SPDKQMAVLPRRERNRQAAAANPENSRGKGRRGQRGKNRGCVLTAIHLNVTDLGLGYETKEELIFRYCSGSCDAAETTYDKILKNLSRNRRLVSDKVGQACCRPIAFDDDLSFLDDNLVYHILRKHSAKRCGCI
cell proliferation of MG-63 cells: no effect
